The source of these data is patent US20250304690A1 (HANGZHOU VIROMAB BIOTECH, published 2025).

Like-named read-outs stand apart in the source and are kept apart here.

One assay addresses CD3 on 293T-CD3 cells. Briefly: flow cytometry on 293T-CD3 cells.
The target in assay [1] is T1, CD3 on Jurkat cells and on human T cells (human, UniProt P07766 23-207).
T1 construct: whole, on cells; also called CD3 end; CD3 antigen
Kind of assay: flow cytometry on Jurkat cells. A general note: Flow cytometry measures light scatter and fluorescence of single cells or particles in a stream.
Method: (§1) Then diluted antibodies with different concentrations were added. The cells were incubated at 4° C. for 0.5 h, centrifuged at 1200 rpm for 3-5 min, and washed with a FACS buffer. Then a goat anti-human IgG secondary antibody (manufacturer: Abcam, ab98596) was added at 100 L/well. The cells were incubated at 4° C. for 0.5 h, centrifuged at 1200 rpm for 3-5 min, washed with a FACs buffer, and resuspended in 50 μL of a FACs buffer, and assays were performed using a flow cytometer.

A further assay deals with hCD3 (human CD3 antigen) (human, UniProt P07766 23-126). Kind of assay: ELISA, plate-coated hCD3. (ELISA stands for enzyme-linked immunosorbent assay.)
Chain of hCD3 (human CD3 antigen) (P07766 23-126): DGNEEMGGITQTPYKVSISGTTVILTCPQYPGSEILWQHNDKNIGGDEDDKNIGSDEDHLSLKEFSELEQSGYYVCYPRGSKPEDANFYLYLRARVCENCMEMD
For assay [2], the target named is T1, CD3 on Jurkat cells and on human T cells. Kind of assay: flow cytometry on Jurkat cells. The source holds these as a separate data set.
Method: Jurkat cells were plated, washed with a FACS buffer, and centrifuged at 1200 rpm for 3-5 min. Then diluted antibodies with different concentrations were added at 100 L/well. The cells were incubated at 4° C. for 0.5 h, centrifuged at 1200 rpm for 3-5 min, and washed with a FACS buffer. Then a diluted goat anti-human IgG (FITC, Abcam/ab97224) antibody was added. The cells were incubated at 4° C. for 0.5 h, centrifuged at 1200 rpm for 3-5 min, washed with a FACS buffer, and resuspended in 50 μL of a FACs buffer, and assays were performed using a flow cytometer.

Chain of CD3 on 293T-CD3 cells (chain, as listed by the source): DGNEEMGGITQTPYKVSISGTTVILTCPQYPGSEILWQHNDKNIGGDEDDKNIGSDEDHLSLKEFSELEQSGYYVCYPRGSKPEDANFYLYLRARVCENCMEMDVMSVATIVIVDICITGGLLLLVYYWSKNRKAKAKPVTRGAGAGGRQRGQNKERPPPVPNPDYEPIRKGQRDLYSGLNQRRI
T1 sequence (P07766 23-207): as the sequence (chain, as listed by the source) above
Method for CD3 on 293T-CD3 cells: as §1
Method for hCD3 (human CD3 antigen): The activity of the prepared humanized antibodies was assessed by ELISA as follows: hCD3 (human CD3 antigen) was diluted to 0.5 g/mL using a coating solution and then added to a 96-well plate at 100 μL/well, and the plate was incubated overnight at 4° C. The plate was washed with PBST. Then 200 µL of a blocking solution was added to each well, and blocking was performed at a temperature of 37° C. for 2 h. The plate was washed with PBST. Then diluted antibodies (the initial concentration was 40 nM, and serial dilution was performed in a 1:6 ratio) were added at 100 L/well, and the plate was incubated at a temperature of 37° C. for 2 h. The plate was washed with PBST. Then an HRP-labeled goat anti-human IgG was added at 100 L/well, and the plate was incubated at 37° C. for 1 h. The plate was washed with PBST, and TMB was added at 100 L/well. Color development was performed at 37° C. for 10-20 min, and 50 µL of 2 M H₂SO₄ was added to each well to stop the reaction. Readings were taken at 450 nm.

B1: CD3 Ab07 (antibody, human IgG1, kappa, V domains shown)
VH: EVQLVESGGGLVQPGGSLRLSCAASGFTFNTYAMNWVRQAPGKGLEWVARIRSKYNNYATYYADSVKDRFTISRDDSKNILYLQMNSLKTEDTAVYYCVRHGNFGNSYVSWFAYWGQGTLVTVSA
VL: QAVVTQEPSLTVSPGGTVTLTCRSSTGAVTTSNYANWVQQKPGQAPRGLIGGTNKRAPWTPARFSGSLLGGKAALTLSGAQTEDEAEYYCALWYSNLWVFGGGTKLTVLR
notes: also called humanized anti-CD3 monoclonal antibody
The EC50 is the concentration needed to bring the measured effect to its halfway point. Read a low EC50 as greater potency. For B1, the EC50 was determined as 9.02 nM in the assay with CD3 on 293T-CD3 cells, 2.42 nM in assay [1] and 0.0129 nM with hCD3 (human CD3 antigen).

B2: CD3 Ab04 (antibody, human IgG1, kappa, V domains shown)
VH: EVQLVESGGGLVQPGGSLRLSCAASGFTFNTYAMNWVRQAPGKGLEWVARIRSKYNNYATYYADSVKDRFTISRDDSKNSLYLQMNSLKTEDTAVYYCVRHGNFGNSYVSWFAYWGQGTLVTVSA
VL: QAVVTQEPSLTVSPGGTVTLTCRSSTGAVTTSNYANWVQQKPGQAPRGLIGGTNKRAPWVPARFSGSLLGDKAALTLSGAQTEDEAEYYCALWYSNLWVFGGGTKLTVLR
notes: as for B1
For the molecule B2, the EC50 came to 5.23 nM in the assay with CD3 on 293T-CD3 cells, 1.18 nM in assay [1] and 0.0068 nM with hCD3 (human CD3 antigen).

B3: CD3 Ab08 (antibody, human IgG1, kappa, V domains shown)
VH: EVQLVESGGGLVQPGGSLRLSCAASGFTFNTYAMNWVRQAPGKGLEWVARIRSKYNNYATYYADSVKDRFTISRDDSKNILYLQMNSLKTEDTAVYYCVRHGNFGNSYVSWFAYWGQGTLVTVSA
VL: QAVVTQEPSLTVSPGGTVTLTCRSSTGAVTTSNYANWVQQKPGQAPRGLIGGTNKRAPWTPARFSGSLLGGKAALTITGAQTEDEAEYYCALWYSNLWVFGGGTKLTVLR
notes: as for B1
With B3, the concentration giving a half-maximal response (EC50) with CD3 on 293T-CD3 cells worked out at 4.24 nM; in assay [1] it was 1.82 nM; with hCD3 (human CD3 antigen), 0.0116 nM.

B4: CD3 Ab11 (antibody, human IgG1, kappa, V domains shown)
VH: EVQLVESGGGLVQPGGSLRLSCAASGFTFNTYAMNWVRQAPGKGLEWVARIRSKYNNYATYYADSVKDRFTISRDDSKNILYLQMNSLKTEDTAMYYCVRHGNFGNSYVSWFAYWGQGTLVTVSA
VL: QAVVTQEPSLTVSPGGTVTLTCRSSTGAVTTSNYANWVQQKPGQAPRGLIGGTNKRAPWTPARFSGSLLGGKAALTLSGAQPEDEAEYYCALWYSNLWVFGGGTKLTVLR
notes: as for B1
For B4, the concentration for a half-maximal effect (EC50) in the assay with CD3 on 293T-CD3 cells amounted to 21.6 nM; in assay [1], 4.45 nM; in the assay with hCD3 (human CD3 antigen) it was 0.0118 nM.

B5: CD3 Ab03 (antibody, human IgG1, kappa, V domains shown)
VH: EVQLVESGGGLVQPGGSLRLSCAASGFTFNTYAMNWVRQAPGKGLEWVARIRSKYNNYATYYADSVKDRFTISRDDSKNSLYLQMNSLKTEDTAVYYCVRHGNFGNSYVSWFAYWGQGTLVTVSA
VL: QAVVTQEPSLTVSPGGTVTLTCRSSTGAVTTSNYANWVQQKPGQAPRGLIGGTNKRAPWTPARFSGSLLGGKAALTITGAQTEDEAEYYCALWYSNLWVFGGGTKLTVLR
notes: as for B1
B5: the EC50 with CD3 on 293T-CD3 cells turned out to be 10.1 nM; in assay [1] it was 2.28 nM; in the assay with hCD3 (human CD3 antigen), 0.0042 nM.

B6: CD3 Ab13 (antibody, human IgG1, kappa, V domains shown)
VH: EVQLVESGGGLVQPGGSLRLSCAASGFTFNTYAMNWVRQAPGKGLEWVARIRSKYNNYATYYADSVKDRFTISRDDSKNILYLQMNSLKTEDTAMYYCVRHGNFGNSYVSWFAYWGQGTLVTVSA
VL: QAVVTQEPSLTVSPGGTVTLTCRSSTGAVTTSNYANWVQQKPGQAPRGLIGGTNKRAPWTPARFSGSLLGGKAALTITGAQTEDEAEYYCALWYSNLWVFGGGTKLTVLR
notes: as for B1
Take B6: the EC50 with CD3 on 293T-CD3 cells was 12.4 nM; in assay [1], 3.19 nM; with hCD3 (human CD3 antigen), 0.0099 nM.

B7: CD3 Ab12 (antibody, human IgG1, kappa, V domains shown)
VH: EVQLVESGGGLVQPGGSLRLSCAASGFTFNTYAMNWVRQAPGKGLEWVARIRSKYNNYATYYADSVKDRFTISRDDSKNILYLQMNSLKTEDTAMYYCVRHGNFGNSYVSWFAYWGQGTLVTVSA
VL: QAVVTQEPSLTVSPGGTVTLTCRSSTGAVTTSNYANWVQQKPGQAPRGLIGGTNKRAPWTPARFSGSLLGGKAALTLSGAQTEDEAEYYCALWYSNLWVFGGGTKLTVLR
notes: as for B1
As for B7, the EC50 with CD3 on 293T-CD3 cells was 15.8 nM; in assay [1] it was 3.52 nM; with hCD3 (human CD3 antigen), 0.0095 nM.

B8: CD3 Ab06 (antibody, human IgG1, kappa, V domains shown)
VH: EVQLVESGGGLVQPGGSLRLSCAASGFTFNTYAMNWVRQAPGKGLEWVARIRSKYNNYATYYADSVKDRFTISRDDSKNILYLQMNSLKTEDTAVYYCVRHGNFGNSYVSWFAYWGQGTLVTVSA
VL: QAVVTQEPSLTVSPGGTVTLTCRSSTGAVTTSNYANWVQQKPGQAPRGLIGGTNKRAPWTPARFSGSLLGGKAALTLSGAQPEDEAEYYCALWYSNLWVFGGGTKLTVLR
notes: as for B1
For the molecule B8, the EC50 with CD3 on 293T-CD3 cells was 13 nM; in assay [1], 3.31 nM; with hCD3 (human CD3 antigen), 0.0126 nM.

B9: CD3 Ab01 (antibody, human IgG1, kappa, V domains shown)
VH: EVQLVESGGGLVQPGGSLRLSCAASGFTFNTYAMNWVRQAPGKGLEWVARIRSKYNNYATYYADSVKDRFTISRDDSKNSLYLQMNSLKTEDTAVYYCVRHGNFGNSYVSWFAYWGQGTLVTVSA
VL: QAVVTQEPSLTVSPGGTVTLTCRSSTGAVTTSNYANWVQQKPGQAPRGLIGGTNKRAPWTPARFSGSLLGGKAALTLSGAQPEDEAEYYCALWYSNLWVFGGGTKLTVLR
notes: as for B1
For the molecule B9, the EC50 with CD3 on 293T-CD3 cells amounted to 22.6 nM; in assay [1] it was 3.3 nM; in the assay with hCD3 (human CD3 antigen), 0.0096 nM.

B10: CD3 Ab02 (antibody, human IgG1, kappa, V domains shown)
VH: EVQLVESGGGLVQPGGSLRLSCAASGFTFNTYAMNWVRQAPGKGLEWVARIRSKYNNYATYYADSVKDRFTISRDDSKNSLYLQMNSLKTEDTAVYYCVRHGNFGNSYVSWFAYWGQGTLVTVSA
VL: QAVVTQEPSLTVSPGGTVTLTCRSSTGAVTTSNYANWVQQKPGQAPRGLIGGTNKRAPWTPARFSGSLLGGKAALTLSGAQTEDEAEYYCALWYSNLWVFGGGTKLTVLR
notes: as for B1
On to B10, for which the EC50 came to 12.3 nM in the assay with CD3 on 293T-CD3 cells, 2.64 nM in assay [1] and 0.0117 nM with hCD3 (human CD3 antigen).

B11: CD3 Ab15 (antibody, human IgG1, kappa, V domains shown)
VH: EVQLVESGGGLVQPGGSLRLSCAASGFTFNTYAMNWVRQAPGKGLEWVARIRSKYNNYATYYADSVKDRFTISRDDSKNILYLQMNSLKTEDTAMYYCVRHGNFGNSYVSWFAYWGQGTLVTVSA
VL: QAVVTQEPSLTVSPGGTVTLTCRSSTGAVTTSNYANWVQEKPGQAPRGLIGGTNKRAPWVPARFSGSLLGDKAALTLSGAQTEDEAEYYCALWYSNLWVFGGGTKLTVLR
notes: as for B1
Regarding B11, the figures for the EC50 (with CD3 on 293T-CD3 cells; in assay [1]; with hCD3 (human CD3 antigen)) were 3.48 nM, 1.11 nM and 0.0099 nM, respectively.

B12: CD3 Ab05 (antibody, human IgG1, kappa, V domains shown)
VH: EVQLVESGGGLVQPGGSLRLSCAASGFTFNTYAMNWVRQAPGKGLEWVARIRSKYNNYATYYADSVKDRFTISRDDSKNSLYLQMNSLKTEDTAVYYCVRHGNFGNSYVSWFAYWGQGTLVTVSA
VL: QAVVTQEPSLTVSPGGTVTLTCRSSTGAVTTSNYANWVQEKPGQAPRGLIGGTNKRAPWVPARFSGSLLGDKAALTLSGAQTEDEAEYYCALWYSNLWVFGGGTKLTVLR
notes: as for B1
With B12, the figures for the EC50 (with CD3 on 293T-CD3 cells; in assay [1]; with hCD3 (human CD3 antigen)) were 4.27 nM, 1.02 nM and 0.0099 nM, respectively.

B13: CD3 Ab14 (antibody, human IgG1, kappa, V domains shown)
VH: EVQLVESGGGLVQPGGSLRLSCAASGFTFNTYAMNWVRQAPGKGLEWVARIRSKYNNYATYYADSVKDRFTISRDDSKNILYLQMNSLKTEDTAMYYCVRHGNFGNSYVSWFAYWGQGTLVTVSA
VL: QAVVTQEPSLTVSPGGTVTLTCRSSTGAVTTSNYANWVQQKPGQAPRGLIGGTNKRAPWVPARFSGSLLGDKAALTLSGAQTEDEAEYYCALWYSNLWVFGGGTKLTVLR
notes: as for B1
For the molecule B13, the values for the EC50 (with CD3 on 293T-CD3 cells; in assay [1]; in the assay with hCD3 (human CD3 antigen)) were 5.73 nM, 1.14 nM and 0.0087 nM, respectively.

B14: CD3 Ab10 (antibody, human IgG1, kappa, V domains shown)
VH: EVQLVESGGGLVQPGGSLRLSCAASGFTFNTYAMNWVRQAPGKGLEWVARIRSKYNNYATYYADSVKDRFTISRDDSKNILYLQMNSLKTEDTAVYYCVRHGNFGNSYVSWFAYWGQGTLVTVSA
VL: QAVVTQEPSLTVSPGGTVTLTCRSSTGAVTTSNYANWVQEKPGQAPRGLIGGTNKRAPWVPARFSGSLLGDKAALTLSGAQTEDEAEYYCALWYSNLWVFGGGTKLTVLR
notes: as for B1
With B14, the EC50 with CD3 on 293T-CD3 cells turned out to be 2.44 nM; in assay [1] it was 0.784 nM; in the assay with hCD3 (human CD3 antigen), 0.002 nM.

B15: CD3 Ab09 (antibody, human IgG1, kappa, V domains shown)
VH: EVQLVESGGGLVQPGGSLRLSCAASGFTFNTYAMNWVRQAPGKGLEWVARIRSKYNNYATYYADSVKDRFTISRDDSKNILYLQMNSLKTEDTAVYYCVRHGNFGNSYVSWFAYWGQGTLVTVSA
VL: QAVVTQEPSLTVSPGGTVTLTCRSSTGAVTTSNYANWVQQKPGQAPRGLIGGTNKRAPWVPARFSGSLLGDKAALTLSGAQTEDEAEYYCALWYSNLWVFGGGTKLTVLR
notes: as for B1
For B15, the EC50 with CD3 on 293T-CD3 cells was 4.4 nM; in assay [1], 0.862 nM; with hCD3 (human CD3 antigen), 0.008 nM.

B16: BK-D-09 (bispecific antibody, human IgG1, kappa)
heavy: QVQLVQSGAEVKKPGASVKVSCKASGYTFTNYYMKWVKQAPGQRLEWMGDLNPNNGDTFYNQKFKGRVTITVDKSASTAYMELSSLRSEDTAVYYCARTGRYEENAMDYWGQGTLVTVSSASTKGPSVFPLAPSSKSTSGGTAALGCLVKDYFPEPVTVSWNSGALTSGVHTFPAVLQSSGLYSLSSVVTVPSSSLGTQTYICNVNHKPSNTKVDKRVEPKSCDKTHTCPPCPAPEFEGGPSVFLFPPKPKDTLMISRTPEVTCVVVDVSHEDPEVKFNWYVDGVEVHNAKTKPREEQYNSTYRVVSVLTVLHQDWLNGKEYKCKVSNKALPASIEKTISKAKGQPREPQVYTLPPSREEMTKNQVSLTCLVKGFYPSDIAVEWESNGQPENNYKTTPPVLDSDGSFFLYSKLTVDKSRWQQGNVFSCSVMHEALHNHYTQKSLSLSPGKGGGGSGGGGSGGGGSQAVVTQEPSLTVSPGGTVTLTCRSSTGAVTTSNYANWVQQKPGQAPRGLIGGTNKRAPWTPARFSGSLLGGKAALTLSGAQTEDEAEYYCALWYSNLWVFGGGTKLTVLGGGGSGGGGSGGGGSEVQLVESGGGLVQPGGSLRLSCAASGFTFNTYAMNWVRQAPGKGLEWVARIRSKYNNYATYYADSVKDRFTISRDDSKNILYLQMNSLKTEDTAVYYCVRHGNFGNSYVSWFAYWGQGTLVTVSA
light: DIVLTQSPASLAVSPGQRATITCRASESVDSYGKSFMHWYQQKPGQPPKLLIYRASNLESGVPARFSGSGSRTDFTLTINPVEANDTANYYCQQNNEDPWTFGQGTKLEIKRTVAAPSVFIFPPSDEQLKSGTASVVCLLNNFYPREAKVQWKVDNALQSGNSQESVTEQDSKDSTYSLSSTLTLSKADYEKHKVYACEVTHQGLSSPVTKSFNRGEC
B16 registered an EC50 in assay [2] of 97.8 nM.
